B1: CPEB3 Ribozyme (parent)
chain: GGGGGCCACAGCAGAAGCGUUCACGUCGCGGCCCCUGUCAGAUUCUGGUGAAUCUGCGAAUUCUGCUGU

Variants of: B1
Assay: self-cleavage, relative activity (ratio to wild type); higher = more cleavage; co-transcriptional

Compared with GCGGGCCACAGCAGAAGCGUUCACGUCGCGGCCCCUGUCAGAUUCUGGUGAAUCUGCUAAUUCUGCUGU, GCGGGCCACAGCAGAAGCGUUCACGUCGCGGCCCCUGUCAGAUUCUGGUGAAUCUGCCAAUUCUGCUGU is lower in self-cleavage: 0.0467 for the first, 0.0216 for the second.

Compared with GUGGGCCACAGCAGAAGCGUUCACGUCGCGGCCCCUGUCCGAUUCUGGUGAAUCUGCGAAUUCUGCUGU, GUGGGCCACAGCAGAAGCGUUCACGUCGCGGCCCCUGUCUGAUUCUGGUGAAUCUGCGAAUUCUGCUGU is lower in self-cleavage: 0.087 for the first, 0.0492 for the second.

Going from GCGGGCCACAGCAGAAGCGUUCACGUCGCGGCCCCUGUCAGAUUCUGGUGAAUCUGCGAAUUCUGCUCU to GCGGGCCACAGCAGAAGCGUUCACGUCGCGGCCCCUGUCAGAUUCUGGUGAAUCUGCGAAUUCUGCUAU, the self-cleavage falls from 0.114 to 0.11.

Going from GUGGGCGACAGCAGAAGCGUUCACGUCGCGGCCCCUGUCAGAUUCUGGUGAAUCUGCGAAUUCUGCUGU to GUGGGCUACAGCAGAAGCGUUCACGUCGCGGCCCCUGUCAGAUUCUGGUGAAUCUGCGAAUUCUGCUGU, the self-cleavage rises from 0.0573 to 0.0578.

First: GUGGGCAACAGCAGAAGCGUUCACGUCGCGGCCCCUGUCAGAUUCUGGUGAAUCUGCGAAUUCUGCUGU
Second: GUGGGCCACCGCAGAAGCGUUCACGUCGCGGCCCCUGUCAGAUUCUGGUGAAUCUGCGAAUUCUGCUGU
The self-cleavage of the first is lower: 0.0706 for the first, 0.0945 for the second.

Going from GUGGGCCACAGCAGAAGGGUUCACGUCGCGGCCCCUGUCAGAUUCUGGUGAAUCUGCGAAUUCUGCUGU to GCGGGCCACAGCAGAAGCGUUCACGUCGCGGCCCCUGCCAGAUUCUGGUGAAUCUGCGAAUUCUGCUGU, the self-cleavage rises from 0.00659 to 0.0174.

Compared with GCGGGCCACAGCAGAAGCGUUCACGUCGCGGCCCCUGGCAGAUUCUGGUGAAUCUGCGAAUUCUGCUGU, GCGGGCCACAGCAGAAGCGUUCACGUCGCGGCCCCUGUCAGAUUCUGGUGAAUCUGCGAAGUCUGCUGU is lower in self-cleavage: 0.0453 for the first, 0.0289 for the second.

Compared with GCGGGCCACAGCAGAAGCGUUCACGUCGCGGCCCCUGUCAGAUUCUGGUGAAUCUGCGAACUCUGCUGU, GCGGGCCACAGCAGAAGCGUUCACGUCGCGGCCCCUGUCAGAUUCUGGUGAAUCUGCGAAAUCUGCUGU is lower in self-cleavage: 0.048 for the first, 0.0082 for the second.

Compared with GUGGGCCACAGCAGAAGCGUUCACGUCGCGGCCCCUGUCAGAUUCUGGUGACUCUGCGAAUUCUGCUGU, GUGGGACACAGCAGAAGCGUUCACGUCGCGGCCCCUGUCAGAUUCUGGUGAAUCUGCGAAUUCUGCUGU is lower in self-cleavage: 0.0652 for the first, 0.0497 for the second.

Going from GUGGGGCACAGCAGAAGCGUUCACGUCGCGGCCCCUGUCAGAUUCUGGUGAAUCUGCGAAUUCUGCUGU to GUGGGUCACAGCAGAAGCGUUCACGUCGCGGCCCCUGUCAGAUUCUGGUGAAUCUGCGAAUUCUGCUGU, the self-cleavage rises from 0.0267 to 0.0652.

Compared with GCGGGCCACAGCAGAAGCGUUCACGUCGCGGCCCCUGUCAGAUUCUGGUGAAUCGGCGAAUUCUGCUGU, GCGGGCCACAGCAGAAGCGUUCACGUCGCGGCCCCUGUCAGAUUCUGGUGAAUCCGCGAAUUCUGCUGU is higher in self-cleavage: 0.0548 for the first, 0.0587 for the second.

Going from GUGGGCCAAAGCAGAAGCGUUCACGUCGCGGCCCCUGUCAGAUUCUGGUGAAUCUGCGAAUUCUGCUGU to GUGGGCCAGAGCAGAAGCGUUCACGUCGCGGCCCCUGUCAGAUUCUGGUGAAUCUGCGAAUUCUGCUGU, the self-cleavage falls from 0.149 to 0.129.

First: GCGGGCCACAGCAGAAGCGUUCACGCCGCGGCCCCUGUCAGAUUCUGGUGAAUCUGCGAAUUCUGCUGU
Second: GCGGGCCACAGCAGAAGCGUUCACGACGCGGCCCCUGUCAGAUUCUGGUGAAUCUGCGAAUUCUGCUGU
The self-cleavage of the first is higher: 0.0734 for the first, 0.0328 for the second.

Going from GCGGGCCACAGCAGAAGCGUUCACGGCGCGGCCCCUGUCAGAUUCUGGUGAAUCUGCGAAUUCUGCUGU to GCGGGCCACAGCAGAAGCGUUCACGUCGCGGCCCCUGUCAGAUUCUGGUGAAUCUGCGAAUUCUGCGGU, the self-cleavage rises from 0.0511 to 0.0872.

Compared with GCGGGCCACAGCAGAAGCGUUCACGUCGCGGCCCCUGUCAGAUUCUGGUGAAUCUGCGAAUUCUGCAGU, GCGGGCCACAGCAGAAGCGUUCACGUCGCGGCCCCUGUCAGAUUCUGGUGAAUCUGCGAAUUCUGCCGU is higher in self-cleavage: 0.0227 for the first, 0.106 for the second.

Compared with GUGGGCCACAGCAGCAGCGUUCACGUCGCGGCCCCUGUCAGAUUCUGGUGAAUCUGCGAAUUCUGCUGU, GUGGGCCACAGCAGUAGCGUUCACGUCGCGGCCCCUGUCAGAUUCUGGUGAAUCUGCGAAUUCUGCUGU is lower in self-cleavage: 0.085 for the first, 0.0721 for the second.

Going from GCGGGCCACAGCAGAAGCGUUCACGUCGCGGCCCCUGUCAGAUUCUGGAGAAUCUGCGAAUUCUGCUGU to GCGGGCCACAGCAGAAGCGUUCACGUCGCGGCCCCUGUCAGAUUCUGGCGAAUCUGCGAAUUCUGCUGU, the self-cleavage falls from 0.0745 to 0.0424.

First: GCGGGCCACAGCAGAAGCGUUCACGUCGCGGCCCCUGUCAGAUUCUGGGGAAUCUGCGAAUUCUGCUGU
Second: GCGGGCCACAGCAGAAGCGUUCACGUCGCGGCCCCUGUCAGAUUCUGGUGAAUCUGCGAAUACUGCUGU
The self-cleavage of the first is lower: 0.0393 for the first, 0.0592 for the second.

Going from GCGGGCCACAGCAGAAGCGUUCACGUCGCGGCCCCUGUCAGAUUCUGGUGAAUCUGCGAAUGCUGCUGU to GUGGGCCACAGCAGAAGCGUUCCCGUCGCGGCCCCUGUCAGAUUCUGGUGAAUCUGCGAAUUCUGCUGU, the self-cleavage rises from 0.0405 to 0.0692.

Going from GUGGGCCACAGCAGAAGCGUUCUCGUCGCGGCCCCUGUCAGAUUCUGGUGAAUCUGCGAAUUCUGCUGU to GUGGGCCACAGCCGAAGCGUUCACGUCGCGGCCCCUGUCAGAUUCUGGUGAAUCUGCGAAUUCUGCUGU, the self-cleavage falls from 0.133 to 0.09.

Compared with GUGGGCCACAGCUGAAGCGUUCACGUCGCGGCCCCUGUCAGAUUCUGGUGAAUCUGCGAAUUCUGCUGU, GCGGGCCACAGCAGAAGCGUUCACGUCGCGGCCCCUGUCAGAUCCUGGUGAAUCUGCGAAUUCUGCUGU is lower in self-cleavage: 0.052 for the first, 0.0257 for the second.

Going from GCGGGCCACAGCAGAAGCGUUCACGUCGCGGCCCCUGUCAGAUUCUGGUGAAUCUGCGAAUUCUGCUGA to GCGGGCCACAGCAGAAGCGUUCACGUCGCGGCCCCUGUCAGAUUCUGGUGAAUCUGCGAAUUCUGCUGC, the self-cleavage rises from 0.111 to 0.147.

First: GUGGGCCACAGCAGAAGCGUUCACGUCGCGGCCCCUGUCAGUUUCUGGUGAAUCUGCGAAUUCUGCUGU
Second: GUGGGCCACAGCAGAAGCGUUCACGUCGCGGCCCCUGUCAGGUUCUGGUGAAUCUGCGAAUUCUGCUGU
The self-cleavage of the first is higher: 0.0798 for the first, 0.0791 for the second.

Compared with GUGGGCCACAGCAGAAGCGUUCACGUCGCGGCCCCUGUCAGCUUCUGGUGAAUCUGCGAAUUCUGCUGU, GCGGGCCACAGCAGAAGCGUUCACGUCGCGGCCCCUGUCAGAUUCUGGUGAAUCUGCGAAUUCAGCUGU is lower in self-cleavage: 0.0887 for the first, 0.0485 for the second.

First: GCGGGCCACAGCAGAAGCGUUCACGUCGCGGCCCCUGUCAGAUUCUGGUGAAUCUGCGAAUUCCGCUGU
Second: GCGGGCCACAGCAGAAGCGUUCACGUCGCGGCCCCUGUCAGAUUCUGGUGAAUCUGCGAAUUCGGCUGU
The self-cleavage of the first is lower: 0.0536 for the first, 0.137 for the second.

First: GCGGGCCACAGCAGAAGCGUUCACGUCGCGGCCCCUGUCAGAUUCGGGUGAAUCUGCGAAUUCUGCUGU
Second: GCGGGCCACAGCAGAAGCGUUCACGUCGCGGCCCCUGUCAGAUUCCGGUGAAUCUGCGAAUUCUGCUGU
The self-cleavage of the first is higher: 0.0683 for the first, 0.0336 for the second.

Compared with GCGGGCCACAGCAGAAGCGUUCACGUCGCGGCCCCUGUCAGAUUCAGGUGAAUCUGCGAAUUCUGCUGU, GUGGGCCACAGCAGAAGCGUUCACGUCGCGGCCCCUGUCAGAUUCUGGUGAAUCUGCGAAUUCUGCUGU is higher in self-cleavage: 0.0309 for the first, 0.0871 for the second.

First: GCGGGCCACAGCAGAAGCGUUCACGUCGCGGCCCCCGUCAGAUUCUGGUGAAUCUGCGAAUUCUGCUGU
Second: GCGGGCCACAGCAGAAGCGUACACGUCGCGGCCCCUGUCAGAUUCUGGUGAAUCUGCGAAUUCUGCUGU
The self-cleavage of the first is higher: 0.063 for the first, 0.0234 for the second.

Compared with GCGGGCCACAGCAGAAGCGUGCACGUCGCGGCCCCUGUCAGAUUCUGGUGAAUCUGCGAAUUCUGCUGU, GUGGGCCACAGGAGAAGCGUUCACGUCGCGGCCCCUGUCAGAUUCUGGUGAAUCUGCGAAUUCUGCUGU is lower in self-cleavage: 0.0813 for the first, 0.0633 for the second.

Compared with GUGGGCCACAGAAGAAGCGUUCACGUCGCGGCCCCUGUCAGAUUCUGGUGAAUCUGCGAAUUCUGCUGU, GUGGGCCACAGUAGAAGCGUUCACGUCGCGGCCCCUGUCAGAUUCUGGUGAAUCUGCGAAUUCUGCUGU is higher in self-cleavage: 0.0547 for the first, 0.13 for the second.

Compared with GUGGGCCACAGCAGAUGCGUUCACGUCGCGGCCCCUGUCAGAUUCUGGUGAAUCUGCGAAUUCUGCUGU, GCGGGCCACAGCAGAAGCGUUCACGUCGCGGCCCCUGUCAGAUUCUGGUGAAUCUUCGAAUUCUGCUGU is lower in self-cleavage: 0.0525 for the first, 0.0319 for the second.

First: GCGGGCCACAGCAGAAGCGUUCACGUCGCGGCCCCUGUCAGAUUCUGGUGAAUCUCCGAAUUCUGCUGU
Second: GUGGGCCACAGCAGAAGCGUUCACGUCGCGGCCCCUGUCAGAUUCUGGUGAAUCUGCGAUUUCUGCUGU
The self-cleavage of the first is lower: 0.0446 for the first, 0.0623 for the second.

First: GUGGGCCACAGCAGAAGCGUUCACGUCGCGGCCCCUGUCAGAUUCUGGUGAAUCUGCGACUUCUGCUGU
Second: GCGGGCCACAGCAGAAGCGAUCACGUCGCGGCCCCUGUCAGAUUCUGGUGAAUCUGCGAAUUCUGCUGU
The self-cleavage of the first is higher: 0.0553 for the first, 0.0496 for the second.

Compared with GCGGGCCACAGCAGAAGCGCUCACGUCGCGGCCCCUGUCAGAUUCUGGUGAAUCUGCGAAUUCUGCUGU, GCGGGCCACAGCAGAAGCGUUCACGUCGCGGCCCCUGUCAGAUUCUGGUGAAGCUGCGAAUUCUGCUGU is lower in self-cleavage: 0.0285 for the first, 0.0245 for the second.

Going from GUGGGCCACAGCAGAAGCGUUCACGUCGCGGCCCCUGUCAGAUUCUGGUGAAUCUGCGCAUUCUGCUGU to GUGGGCCACAGCAGAAGCGUUCACGUCGCGGCCCCUGUCAGAUUCUGGUGAAUCUGCGUAUUCUGCUGU, the self-cleavage rises from 0.05 to 0.0606.

Compared with GUGGGCCUCAGCAGAAGCGUUCACGUCGCGGCCCCUGUCAGAUUCUGGUGAAUCUGCGAAUUCUGCUGU, GUGGGCCCCAGCAGAAGCGUUCACGUCGCGGCCCCUGUCAGAUUCUGGUGAAUCUGCGAAUUCUGCUGU is higher in self-cleavage: 0.0613 for the first, 0.0912 for the second.

Compared with GUGGGCCGCAGCAGAAGCGUUCACGUCGCGGCCCCUGUCAGAUUCUGGUGAAUCUGCGAAUUCUGCUGU, GUGGGCCACAGCAGAAGCGUUCACGUCGCGGCCCCUGUCAGAUUCUGGUGGAUCUGCGAAUUCUGCUGU is higher in self-cleavage: 0.0691 for the first, 0.127 for the second.

First: GUGGGCCACAGCAGAAGCGUUCACGUCGCGGCCCCUGUCAGAUUCUGGUGUAUCUGCGAAUUCUGCUGU
Second: GCGGGCCACAGCAGAAGCGUUCACGUCGCGGCCCCUGUCAGAAUCUGGUGAAUCUGCGAAUUCUGCUGU
The self-cleavage of the first is higher: 0.0841 for the first, 0.0772 for the second.

Going from GCGGGCCACAGCAGAAGCGUUCACGUCGCGGCCCCUGUCAGACUCUGGUGAAUCUGCGAAUUCUGCUGU to GCGGGCCACAGCAGAAGCGUUCACGUCGCGGCCCCUGUCAGAUUCUGGUGAAUCUGCGAAUUCUCCUGU, the self-cleavage falls from 0.0672 to 0.0537.

Reference: the RNAGym collection of RNA variant scans (doi:10.7554/elife.80360)
